Substitutions are numbered along the chain they refer to.
B1: SCT-Fa111 (antibody, V domains shown)
VH: QVQLKQSGPGLVQPSQSLSITCTVSGFSLISYGVHWVRQSPGKGLEWLGIIWSGGNTDYNAAFISRLSISKDNSKSQVFFKLNSLQADDTAIYYCARTANALDYWGQGTSVTVSS
VL: DVLMTQTPLSLPVSLGDQASISCRSSQTIVHSNGNTYLEWYLQKPGQSPKLLIYKVSNRFSGVPDRFSGSGSGTDFTLKISRVEAEDLGVYYCFQGSHVPWTFGGGTKLEIK
notes: murine IgG
B2: SCT-Fa113 (antibody, V domains shown)
VH: QVQLQQPGAEFVKPGASVKLSCEASGNTFTSYWIQWVKQRPGQGLEWIGEIDPSDSYIDYNQKFKDKATLTVDTSSSTAYMHLSSLTSEDSAVYYCAREGAYSSPFAYWGQGTLVTVSA
VL: DILMTQSPSSMSVSLGDTISIICHASQDIRSNIGWLQQKPGKSFKGLIYHGSNLEDGVPSRFSGSGSGADYSLTISSLESEDFADYYCVQYIQFPRTFGGGTKVEIK
notes: murine IgG
B3: SCT-Fa116 (antibody, V domains shown)
VH: QVQLQQPGAELVKPGASVKLSCKASGYSFISSWMEWVKQRPGQGLEWIGRIHPSDSDTNYNQKFKAKATLTVDKSSSTAYMQLSSLTSEDSAVYYCAIIHRGFYFAMDYWGQGTSVTVSS
VL: B1 VL with T28S
notes: murine IgG
B4: SCT-Fa119 (antibody, V domains shown)
VH: B3 VH with L20V, A66G
VL: B1 VL with T28S
notes: murine IgG
B5: SCT-Fa118 (antibody, V domains shown)
VH: QVQLQQPGAELVKPGASVKLSCKASGYTFISYWMHWVKQRPGRGLEWIGRIDPNSGDTKYNEKFKSKATLTVDKPSSTAYMQLSSLISEDSAVYYCARWGWDAFAYWGQGTLVTVSA
VL: DAVMTQTPLSLPVSLGDQASISCRSSQSLENSDGNTYLNWYFQKTGQSPQLLIYRVSNRFSGVLDRFSGSGSGTDFTLKISRVEAEDLGVYFCLQVTHVPPTFGAGTKLELK
notes: murine IgG
B6: SCT-Fa120 (antibody, V domains shown)
VH: QVQLQQPGAELVKPGASVKVSCKASGYSFISYWMYWVKQRPGQGLEWIGRIHPSDSDTNYNQKYKGKATLTVDRSSSTAYMQLSSLTSEDSAVYYCTISHYSGSSPETYWGQGTTLTVSS
VL: B1 VL with T28S, W101Y
notes: murine IgG
B7: SCT-Fa121 (antibody, V domains shown)
VH: QVQLQQPGAELVKPGASVKVSCKASGYTFISHWMYWVRQRPGQGLEWIGRIHPSDSDTDYSQEFKGKATLTVDKSSSTAHMQLSSLTSEDSAVYYCAIWSYYYGSRLDYWGQGTTLTVSS
VL: B1 VL with T7A, L9P, T28N, K44R, F94C, W101Y
notes: murine IgG
B8: SCT-Fa150 (antibody, V domains shown)
VH: B7 VH with L11V, T28S, S105T
VL: B1 VL with L9P, T28N, K44R, F94C, W101Y
notes: murine IgG
B9: SCT-Fa127 (antibody, V domains shown)
VH: QVQLQQPGAELVMPGASVKLSCKASGYTFTTYWMHWVKQRPGQGLEWIGEIDPSDGYSNYNQNFKGKATLTVDKSSSTAYLQLSSLTSEDSAVYYCARNYGSNYVGYFDYWGQGTTLTVSS
VL: DIQMTQTTSSLSASLGDRVTISCRSSQDISNYLNWYQQKPDGTVKLLIYYTSRLHSGVPSSFSGSGSGTDYSLTISNLEQEDIATYFCQQANALPWTFGGGTKLEIK
notes: murine IgG
B10: SCT-Fa122 (antibody, V domains shown)
VH: B9 VH with K23E, Y32F, M34I, G56S, S58T
VL: B9 VL with S25A, T85I
notes: murine IgG
B11: SCT-Fa123 (antibody, V domains shown)
VH: B9 VH with T30N, G56S, S58T, K65N
VL: B9 VL with S25A, H55P, N92K
notes: murine IgG
B12: SCT-Fa124 (antibody, V domains shown)
VH: B9 VH with T30S, G56S, S58T, L81M, Y110H, Q113R
VL: B9 VL with S25A, E79A, A91G
notes: murine IgG
B13: SCT-Fa125 (antibody, V domains shown)
VH: B9 VH with T31S, G56N, S58T, N63K, K74G, L81M
VL: B9 VL with S25A, D28G, L54F, S61R, A91G, A93S
notes: murine IgG
B14: SCT-Fa126 (antibody, V domains shown)
VH: B9 VH with T31S, G56S, N63K, L81M, S84I
VL: B9 VL with S25A, H55L, S61R, A91G, A93T, K103N
notes: murine IgG
B15: SCT-Fa128 (antibody, V domains shown)
VH: B9 VH with G56S, N63K, L81M
VL: B9 VL with M4L, S22N, S25A, H55L, N77S, A91G, N92K
notes: murine IgG
B16: SCT-Fa129 (antibody, V domains shown)
VH: B9 VH with G56S, S58T, N63K, L81M
VL: B9 VL with M4L, S22N, S25A, H55L, N77S, A91G, N92K
notes: murine IgG
B17: SCT-Fa130 (antibody, V domains shown)
VH: B9 VH with K19R, K38R, G56S, S58T, Y110H
VL: B9 VL with S25A
notes: murine IgG
B18: SCT-Fa131 (antibody, V domains shown)
VH: B9 VH with K19R, A24T, T30S, G56S, S58T, L81M, Q82K
VL: B9 VL with T8A, S25A, S30N, A91G, G99S
notes: murine IgG
B19: SCT-Fa132 (antibody, V domains shown)
VH: B9 VH with G15R, T31S, S58T, Q62H, N63K, L81M
VL: B9 VL with S25A, P40R, L54F, S61R, A91G, A93T
notes: murine IgG
B20: SCT-Fa190 (antibody, V domains shown)
VH: B9 VH with Q5R, T30N, G56S, S58T
VL: B9 VL with S25A, H55P, N92K
notes: murine IgG
B21: SCT-Fa133 (antibody, V domains shown)
VH: B9 VH with P14S, K38R, G56S, Y60N, G66A, L81M, S84G
VL: B9 VL with T7S, S25A, S30T, Y50H, S56A, S61R, E79D, A91G
notes: murine IgG
B22: SCT-Fa134 (antibody, V domains shown)
VH: QVQLQQPGAELVRPGSSVKLSCKASGYNFTNYWIDWVKQRPGQGLAWIGDIYPSDNKTHYNQNFKGKATLTVDKSSNTAYMQLSSLTSEDSAVYYCAASMDYWGQGTSVTVSS
VL: DIVMTQSPSSLTVTAGEKVTMSCKSSQSLLNSKNQKNFLTWYQQKPGQPPKLLIYWASTRESGVPDRFTGSASGTDFTLTISSVQAEDLAVYYCQNDYSYPYTFGGGTKLEIK
notes: murine IgG
B23: SCT-Fa135 (antibody, V domains shown)
VH: B22 VH with N31S, A46E, N56S, S85N, A98T
VL: B22 VL with S99D
notes: murine IgG
B24: SCT-Fa136 (antibody, V domains shown)
VH: QVQLQQPGAELVRPGTSVKLSCKASGYTFINYWMHWVKQRPGQGLEWIGVIDPSHTSTSYNQKFKGKATLTVDTSSTTTSMQLTSLTSEDSAVYYCARNDYDGGYFDYWGQGTTLTVSS
VL: DVVMTQIPLSLPVSLGDQASISCRSSQSLVHSNGNTYLHWYLQKPGQSPKLLIYTVSNRFSGVPDRFSGSGSGTDFTLKISRLEAEDLGVYFCSQTTHVPWTFGGGTKLEIK
notes: murine IgG

What follows are binders tested against T1, Human TIM-3 Human Fc tagged protein (human, fluorescently labeled with HiLyte Fluor 555 (sites not given)) (assay: capture slide probed with labeled TIM-3-Fc;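 also: IgG from single CD138-enriched plasma cells, isolated from lymphocytes, immobilized on a derivatized glass slide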).
T1 construct: Bought construct; also called TIM-3 protein tagged with human Fc; ACROBiosystems catalog no: TM3-H5258

Binder | binding result
B1 | binds
B2 | binds
B3 | binds
B4 | binds
B5 | binds
B6 | binds
B7 | binds
B8 | binds
B9 | binds
B10 | binds
B11 | binds
B12 | binds
B13 | binds
B14 | binds
B15 | binds
B16 | binds
B17 | binds
B18 | binds
B19 | binds
B20 | binds
B21 | binds
B22 | binds
B23 | binds
B24 | binds

From patent US20230279105A1 (SINGLE CELL TECHNOLOGY, published 2023)
